Assay in all cases: crystal structure; purified Prc mutant and sNlpI mixed in a 1:2 molar ratio, complex isolated on Superdex 200 (25 mM Tris-HCl pH 8.0, 150 mM NaCl); hanging-drop vapor diffusion at 22°C (16°C for sNlpI–Prc-ΔPDZ)
For one data set, the target named is T1, Prc-S452I/L252Y (E. coli, UniProt P23865 23-682, S452I | L252Y).
T1 construct: also called Prc S452I/L252Y double mutant; unliganded resting Prc; source: E. coli ΔPrc cells (strain MR812), purified (Ni-NTA, Mono Q, Superdex 200 with sNlpI)
T1 sequence (looked up): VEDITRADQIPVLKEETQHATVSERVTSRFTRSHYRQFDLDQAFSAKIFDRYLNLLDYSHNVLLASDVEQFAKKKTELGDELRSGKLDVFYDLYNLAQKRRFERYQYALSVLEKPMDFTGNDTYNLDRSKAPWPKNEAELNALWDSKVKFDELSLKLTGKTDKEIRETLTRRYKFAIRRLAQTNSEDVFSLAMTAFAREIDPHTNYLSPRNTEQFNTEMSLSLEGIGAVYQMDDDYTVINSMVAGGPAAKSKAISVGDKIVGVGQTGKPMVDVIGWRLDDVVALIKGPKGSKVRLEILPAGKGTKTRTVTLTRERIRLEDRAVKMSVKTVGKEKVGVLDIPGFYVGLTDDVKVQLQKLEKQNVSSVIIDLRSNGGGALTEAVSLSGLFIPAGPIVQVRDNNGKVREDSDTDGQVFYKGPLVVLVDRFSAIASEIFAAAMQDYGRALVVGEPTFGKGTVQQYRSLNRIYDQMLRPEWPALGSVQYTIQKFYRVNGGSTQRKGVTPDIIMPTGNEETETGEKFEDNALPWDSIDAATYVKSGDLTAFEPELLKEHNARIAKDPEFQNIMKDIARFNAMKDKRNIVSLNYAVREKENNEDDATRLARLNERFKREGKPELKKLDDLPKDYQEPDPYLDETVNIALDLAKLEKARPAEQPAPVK
To be noted: both partners purified.

In the next data set the target is T2, Prc-L245A/L340G (E. coli, UniProt P23865 23-682, L245A | L340G).
T2 construct: also called Prc L245A/L340G double mutant; source: E. coli ΔPrc cells (strain MR812), purified (Ni-NTA, Mono Q, Superdex 200 with sNlpI)
T2 sequence (looked up): T1 sequence (looked up) with L223A, Y230L, L318G, I430S
The settings on record: both partners purified.

Data set [1] deals with T3, Prc-ΔPDZ (Prc with the deletion of residues 247 to 339) (E. coli, UniProt P23865 23-682, Δ247-339).
T3 construct: Prc (Tsp), tail-specific C-terminal processing protease of E. coli, with the PDZ domain (residues 247 to 339) deleted; cloned into pTrc99A; also called Prc-PDZ; source: E. coli ΔPrc cells (strain MR812), purified (Ni-NTA, Mono Q, Superdex 200 with sNlpI)
T3 sequence (looked up): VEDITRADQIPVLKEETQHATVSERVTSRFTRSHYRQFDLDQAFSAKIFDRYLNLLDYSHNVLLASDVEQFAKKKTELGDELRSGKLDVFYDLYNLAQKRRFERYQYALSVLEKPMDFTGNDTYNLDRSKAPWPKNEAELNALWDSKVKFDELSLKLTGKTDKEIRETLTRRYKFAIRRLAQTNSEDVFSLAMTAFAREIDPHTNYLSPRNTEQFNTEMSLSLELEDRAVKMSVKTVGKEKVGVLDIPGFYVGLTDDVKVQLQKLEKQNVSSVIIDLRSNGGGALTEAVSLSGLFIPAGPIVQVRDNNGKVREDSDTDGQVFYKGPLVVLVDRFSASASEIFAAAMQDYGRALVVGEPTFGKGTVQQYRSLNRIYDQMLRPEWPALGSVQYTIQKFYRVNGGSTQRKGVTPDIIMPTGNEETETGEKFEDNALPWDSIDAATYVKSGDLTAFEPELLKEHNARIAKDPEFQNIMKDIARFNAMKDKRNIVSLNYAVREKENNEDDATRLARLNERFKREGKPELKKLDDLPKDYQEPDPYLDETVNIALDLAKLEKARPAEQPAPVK
The settings on record: both partners purified.

Data set [2] concerns the molecule itself.

Substitutions are numbered along the chain they refer to.

A word on the stoichiometry N: it is the number of molecules, sites or subunits per partner or assembly.

B1: soluble form of NlpI (sNlpI) (natural protein, E. coli, UniProt P0AFB1 19-294, looked up)
chain: CSNTSWRKSEVLAVPLQPTLQQEVILARMEQILASRALTDDERAQLLYERGVLYDSLGLRALARNDFSQALAIRPDMPEVFNYLGIYLTQAGNFDAAYEAFDSVLELDPTYNYAHLNRGIALYYGGRDKLAQDDLLAFYQDDPNDPFRSLWLYLAEQKLDEKQAKEVLKQHFEKSDKEQWGWNIVEFYLGNISEQTLMERLKADATDNTSLAEHLSETNFYLGKYYLSLGDLDSATALFKLAVANNVHNFVEHRYALLELSLLGQDQDDLAESDQQ
notes: NlpI of E. coli without its lipoprotein signal peptide (expressed without the lipid anchor); a TEV protease cleavage site follows the N-terminal His tag; source: E. coli BL21(λDE3), purified (Ni-NTA, Mono Q, Superdex 200 with Prc)
In the case of B1, the binding result (with Prc-S452I/L252Y; with Prc-L245A/L340G; in data set [1]) was “binds” throughout. Also, in data set [2], the “stoichiometry N” value turned out to be 2.

These data come from paper PMC6686036, “Structural Basis for the Differential Regulatory Roles of the PDZ Domain in C-Terminal Processing Proteases” (mBio, 2019).
